PMC8879737
Several values for one entry are separate records, joined by “and”; a condition that tells them apart may be missing. Equal entries are not always repeated. Where two headings read alike, the source gives them in different places.

Assays:
[1] = target: guinea pig whole molecule IgG (guinea pig); assay: SPR; Biacore 2000; human IgG Fc and human, rabbit, mouse, guinea pig whole IgG amine coupled to CM5 chips (854, 1348, 1094, 857, 1143 RU); gE monomers and gE/gI heterodimers at 750 μg/mL (Bac gE-1 t411 490 μg/mL) flowed at 30 μL/min in 0.01 M HEPES pH 7.4, 0.15 M NaCl, 0.005% P20; one concentration, RU at the end of association and of dissociation
[2] = target: rabbit whole molecule IgG (rabbit); assay: as above
[3] = target: human whole molecule IgG (human); assay: as above
[4] = target: ChromePure human IgG Fc (human); assay: as above
[5] = target: rabbit whole molecule IgG (rabbit); assay: as above; remark: listed apart in the source
[6] = target: human whole molecule IgG (human); assay: as above; remark: listed apart in the source
[7] = target: ChromePure human IgG Fc (human); assay: as above; remark: listed apart in the source
[8] = target: gE-2 t417 (HSV-2 strain 333); assay: SEC-MALS; Superdex 200, 10 mM HEPES, 150 mM NaCl, pH 7.5, 20 °C, 0.5 mL/min; 200 µg injected; conjugate analysis (protein and carbohydrate)

Substance | RU post association [1] | RU post dissociation [1] | RU post association [2] | RU post dissociation [2] | RU post association [3] | RU post dissociation [3] | RU post association [4] | RU post association [5] | RU post association [6] | RU post association [7] | RU post dissociation [4] | stoichiometry N [8]
Bac gE-1 t411 (domain or fragment) | 32 RU | 3.3 RU | 231 RU | 75 RU | 147 RU | 32 RU | 77 RU | 228 RU and 221 RU | 157 RU and 145 RU | 80 RU |  | 
gE-1 t419 (domain or fragment) | 27 RU | -2.4 RU | 188 RU | 0.6 RU | 127 RU | -1.9 RU |  |  |  |  |  | 
gE-1 t419/gI-1 t269 (complex) | 19 RU | 0.8 RU | 195 RU | 170 RU | 232 RU | 189 RU | 216 RU |  |  |  | 137 RU | 
gE-2 t24-405/gI-2 t262 (complex) |  |  | 142 RU | 25 RU | 136 RU | 12 RU | 95 RU |  |  |  | 6.6 RU | 
gE-2 t405/gI-2 t262 (complex) |  |  | 165 RU | 34 RU | 142 RU | 14 RU | 100 RU |  |  |  | 7.7 RU | 
gE-2 t414/gI-2 t262 (complex) |  |  | 75 RU | -0.6 RU | 79 RU | -0.4 RU | 53 RU |  |  |  | 0.6 RU | 
gE-2 t417/gI-2 t262 (complex) |  |  | 46 RU | -1.5 RU | 52 RU | -2.1 RU |  |  | 53 RU and 133 RU |  |  | 
gI-2 t262 (strain 333) (domain or fragment) |  |  |  |  |  |  |  |  |  |  |  | 1
